According to patent US20250281611A1 (BIOSCEPTRE AUST, published 2025):
Blank lines part the entries; values can stand above or below the binder they belong to.

Tests used:
CD19 [1] = biological target: T1, CD19 (UniProt P15391 20-556, limits assumed); assay: flow cytometry, JeKo-1 cells, BIL03s-AF647 detection, MFI over no-bridge control
T1 construct: whole, on cells; also called CD19 on JeKo-1
T1 sequence (looked up): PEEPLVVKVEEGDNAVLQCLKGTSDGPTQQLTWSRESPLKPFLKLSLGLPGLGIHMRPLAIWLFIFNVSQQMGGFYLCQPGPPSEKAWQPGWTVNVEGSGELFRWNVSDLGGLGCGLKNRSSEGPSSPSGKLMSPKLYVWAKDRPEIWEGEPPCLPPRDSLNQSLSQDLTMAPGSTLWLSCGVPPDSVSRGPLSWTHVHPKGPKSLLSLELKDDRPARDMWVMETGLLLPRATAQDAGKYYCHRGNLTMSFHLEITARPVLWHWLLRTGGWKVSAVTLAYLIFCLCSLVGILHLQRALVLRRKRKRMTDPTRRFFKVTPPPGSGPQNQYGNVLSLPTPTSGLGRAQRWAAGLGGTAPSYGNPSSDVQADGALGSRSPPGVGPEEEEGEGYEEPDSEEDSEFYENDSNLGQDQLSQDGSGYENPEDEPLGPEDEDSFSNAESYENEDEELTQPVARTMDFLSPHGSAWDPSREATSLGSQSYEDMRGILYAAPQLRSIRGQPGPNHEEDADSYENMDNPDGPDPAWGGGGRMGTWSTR
Description: (§1) JeKo-1 cells were incubated with different CD19 BRiDGE variants at saturating concentrations. […] The MFI intensity correlates with the number of secondary bound antibodies bound to the CD19 BRiDGE variants that are only detected if they are bound to the JeKo-1 cells. MFI: median fluorescence intensity. BLitz: Bio-Layer interferometry (BLI) technology using HIS-tag identification tips. […] The higher the MFIR, the stronger the binding.

CD19 [2] = biological target: T1, CD19; assay: flow cytometry, JeKo-1 cells, anti-His-FITC detection, MFI over no-bridge control
Description: as §1

nfP2X7 CAR 1 [3] = biological target: T2, nfP2X7 CAR 1; assay: flow cytometry, anti-His-FITC, MFI on EGFR+ (CAR+) over EGFR- (CAR-) T cells
T2 construct: CAR-positive cells gated by the co-expressed EGFR marker; also called nfP2X7 targeted CAR; nfP2X7 CAR on EGFR+ T cells
Description: (§2) nfP2X₇ CAR T cells were incubated with different BRiDGE variants at saturating concentrations. […] The MFI intensity correlates with the number of secondary bound antibodies bound to the BRiDGEs that are only detected if they are bound to the CAR T cells. EGFR was used as a marker gene to detect the CAR expression. Thus, the EGFR+ T cell population was defined as the CAR expressing cells and the EGFR− T cell population was defined as the CAR negative subset. MFI: median fluorescence intensity. EGFR: epidermal growth factor receptor. BLItz: Bio-Layer interferometry (BLI) technology using HIS-tag identification tips. HIS-tag MFI Ratio: relative index that is calculated by the testing condition MFI divided by the control MFI, which corresponds to the MFI measured on EGFR+ T cells (defined as CAR positive cells) divided by the MFI measured on the EGFR− T cells (defined as CAR negative cells). […] The higher the MFIR, the stronger the binding.

nfP2X7 CAR 1 [4] = biological target: T2, nfP2X7 CAR 1; assay: flow cytometry, nfP2X7 CAR 1 T cells (EGFR+ gate), anti-His-FITC detection
Description: as §2

CD19 [5] = biological target: T1, CD19; assay: flow cytometry, JeKo-1 cells, bridge at saturating conc., BIL03s-AF647 detection
Description: as §1

nfP2X7 CAR 1 [6] = biological target: T2, nfP2X7 CAR 1; assay: flow cytometry, anti-His-FITC, MFI on EGFR+ (CAR+) T cells over background 0.44
Description: as §2

CD19 [7] = biological target: T1, CD19; assay: flow cytometry, JeKo-1 cells, bridge at saturating conc., anti-His-FITC detection
Description: as §1

MFIR BIL03 AF647 (CD19 [1]): 10.7 | MFIR HisTag FITC (CD19 [2]): 3.51 | HisTag MFI Ratio of EGFR+/EGFR- (nfP2X7 CAR 1 [3]): 4.1 | MFI HisTag FITC in EGFR+ Population (nfP2X7 CAR 1 [4]): 2.16 | MFI Bil03 AF647 (CD19 [5]): 4.9 | HisTag MFI Ratio (background 0.44) (nfP2X7 CAR 1 [6]): 4.9 | MFI HisTag FITC (CD19 [7]): 2.7
B1: CD19 BRIDGE variant B19 (Fab, V domains shown)
VH: EVQLVESGGGLVKPGGSLKLSCAASGYTFTSYVMHWVRQAPGKGLEWIGYINPYNDGTKYNEKFQGRVTISSDKSISTAYMELSSLRSEDTAMYYCARGTYYYGTRVFDYWGQGTLVTVSS
VL: DIVMTQSPATLSLSPGERATLSCRSSKSLQNVNGNTYLYWFQQKPGQSPQLLIYRMSNLNSGVPDRFSGSGSGTEFTLTISSLEPEDFAVYYCMQHLEYPITFGAGTKLEIKR

MFIR BIL03 AF647 (CD19 [1]): 12 | MFIR HisTag FITC (CD19 [2]): 3.06 | HisTag MFI Ratio of EGFR+/EGFR- (nfP2X7 CAR 1 [3]): 4.2 | MFI HisTag FITC in EGFR+ Population (nfP2X7 CAR 1 [4]): 2.17 | MFI Bil03 AF647 (CD19 [5]): 5.53 | HisTag MFI Ratio (background 0.44) (nfP2X7 CAR 1 [6]): 4.9 | MFI HisTag FITC (CD19 [7]): 2.36
B2: CD19 BRIDGE variant B26 (Fab, V domains shown)
VH: B1 VH
VL: B1 VL

MFIR BIL03 AF647 (CD19 [1]): 9.07 | MFIR HisTag FITC (CD19 [2]): 3.39 | HisTag MFI Ratio of EGFR+/EGFR- (nfP2X7 CAR 1 [3]): 4.1 | MFI HisTag FITC in EGFR+ Population (nfP2X7 CAR 1 [4]): 2.11 | MFI Bil03 AF647 (CD19 [5]): 4.17 | HisTag MFI Ratio (background 0.44) (nfP2X7 CAR 1 [6]): 4.8 | MFI HisTag FITC (CD19 [7]): 2.61
B3: CD19 BRIDGE variant B20 (Fab, V domains shown)
VH: B1 VH
VL: B1 VL

MFIR BIL03 AF647 (CD19 [1]): 10.9 | MFIR HisTag FITC (CD19 [2]): 3.01 | HisTag MFI Ratio of EGFR+/EGFR- (nfP2X7 CAR 1 [3]): 4 | MFI HisTag FITC in EGFR+ Population (nfP2X7 CAR 1 [4]): 2.28 | MFI Bil03 AF647 (CD19 [5]): 5 | HisTag MFI Ratio (background 0.44) (nfP2X7 CAR 1 [6]): 5.2 | MFI HisTag FITC (CD19 [7]): 2.32
B4: CD19 BRIDGE variant B25 (Fab, V domains shown)
VH: B1 VH
VL: B1 VL

MFIR BIL03 AF647 (CD19 [1]): 23.7 | MFIR HisTag FITC (CD19 [2]): 3.94 | HisTag MFI Ratio of EGFR+/EGFR- (nfP2X7 CAR 1 [3]): 4.2 | MFI HisTag FITC in EGFR+ Population (nfP2X7 CAR 1 [4]): 2.25 | MFI Bil03 AF647 (CD19 [5]): 10.9 | HisTag MFI Ratio (background 0.44) (nfP2X7 CAR 1 [6]): 5.1 | MFI HisTag FITC (CD19 [7]): 3.03
B5: CD19 BRIDGE variant B18 (Fab)
heavy: EVQLVESGGGLVKPGGSLKLSCAASGYTFTSYVMHWVRQAPGKGLEWIGYINPYNDGTKYNEKFQGRVTISSDKSISTAYMELSSLRSEDTAMYYCARGTYYYGTRVFDYWGQGTLVTVSSASTKGPSVFPLAPSSKSTSGGTAALGCLVKDYFPEPVTVSWNSGALTSGVHTFPAVLQSSGLYSLSSVVTVPSSSLGTQTYICNVNHKPSNTKVDKKVEPKSCHHHHHH
light: GHNYTTRNILPGLNITSTFHKTSGSGKGGGGSEPKSSDKTHTGGGGSDIVMTQSPATLSLSPGERATLSCRSSKSLQNVNGNTYLYWFQQKPGQSPQLLIYRMSNLNSGVPDRFSGSGSGTEFTLTISSLEPEDFAVYYCMQHLEYPITFGAGTKLEIKRTVAAPSVFIFPPSDEQLKSGTASVVCLLNNFYPREAKVQWKVDNALQSGNSQESVTEQDSKDSTYSLSSTLTLSKADYEKHKVYACEVTHQGLSSPVTKSFNRGEC

MFIR BIL03 AF647 (CD19 [1]): 10.5 | MFIR HisTag FITC (CD19 [2]): 3.3 | HisTag MFI Ratio of EGFR+/EGFR- (nfP2X7 CAR 1 [3]): 4 | MFI HisTag FITC in EGFR+ Population (nfP2X7 CAR 1 [4]): 2.21 | MFI Bil03 AF647 (CD19 [5]): 4.85 | HisTag MFI Ratio (background 0.44) (nfP2X7 CAR 1 [6]): 5 | MFI HisTag FITC (CD19 [7]): 2.54
B6: CD19 BRIDGE variant B22 (Fab)
heavy: B5 heavy
light: DFPGHNYTTRNILPGLNITSTFHKTSGSGKEPKSSDKTHTDIVMTQSPATLSLSPGERATLSCRSSKSLQNVNGNTYLYWFQQKPGQSPQLLIYRMSNLNSGVPDRFSGSGSGTEFTLTISSLEPEDFAVYYCMQHLEYPITFGAGTKLEIKRTVAAPSVFIFPPSDEQLKSGTASVVCLLNNFYPREAKVQWKVDNALQSGNSQESVTEQDSKDSTYSLSSTLTLSKADYEKHKVYACEVTHQGLSSPVTKSFNRGEC

MFIR BIL03 AF647 (CD19 [1]): 8.83 | MFIR HisTag FITC (CD19 [2]): 3.32 | HisTag MFI Ratio of EGFR+/EGFR- (nfP2X7 CAR 1 [3]): 4.1 | MFI HisTag FITC in EGFR+ Population (nfP2X7 CAR 1 [4]): 2.19 | MFI Bil03 AF647 (CD19 [5]): 4.06 | HisTag MFI Ratio (background 0.44) (nfP2X7 CAR 1 [6]): 5 | MFI HisTag FITC (CD19 [7]): 2.56
B7: CD19 BRIDGE variant B21 (Fab)
heavy: B5 heavy
light: DFPGHNYTTRNILPGLNITSGGGGSEPKSSDKTHTDIVMTQSPATLSLSPGERATLSCRSSKSLQNVNGNTYLYWFQQKPGQSPQLLIYRMSNLNSGVPDRFSGSGSGTEFTLTISSLEPEDFAVYYCMQHLEYPITFGAGTKLEIKRTVAAPSVFIFPPSDEQLKSGTASVVCLLNNFYPREAKVQWKVDNALQSGNSQESVTEQDSKDSTYSLSSTLTLSKADYEKHKVYACEVTHQGLSSPVTKSFNRGEC

MFIR BIL03 AF647 (CD19 [1]): 18.4 | MFIR HisTag FITC (CD19 [2]): 3.21 | HisTag MFI Ratio of EGFR+/EGFR- (nfP2X7 CAR 1 [3]): 3.9 | MFI HisTag FITC in EGFR+ Population (nfP2X7 CAR 1 [4]): 2.13 | MFI Bil03 AF647 (CD19 [5]): 8.45 | HisTag MFI Ratio (background 0.44) (nfP2X7 CAR 1 [6]): 4.8 | MFI HisTag FITC (CD19 [7]): 2.47
B8: CD19 BRIDGE variant B24 (Fab)
heavy: B5 heavy
light: DFPGHNYTTRNILPGLNITSTFHKTSGSGKGGGGSEPKSSDKTHTDIVMTQSPATLSLSPGERATLSCRSSKSLQNVNGNTYLYWFQQKPGQSPQLLIYRMSNLNSGVPDRFSGSGSGTEFTLTISSLEPEDFAVYYCMQHLEYPITFGAGTKLEIKRTVAAPSVFIFPPSDEQLKSGTASVVCLLNNFYPREAKVQWKVDNALQSGNSQESVTEQDSKDSTYSLSSTLTLSKADYEKHKVYACEVTHQGLSSPVTKSFNRGEC

MFIR BIL03 AF647 (CD19 [1]): 14.8 | MFIR HisTag FITC (CD19 [2]): 3.1 | HisTag MFI Ratio of EGFR+/EGFR- (nfP2X7 CAR 1 [3]): 4.4 | MFI HisTag FITC in EGFR+ Population (nfP2X7 CAR 1 [4]): 2.34 | MFI Bil03 AF647 (CD19 [5]): 6.82 | HisTag MFI Ratio (background 0.44) (nfP2X7 CAR 1 [6]): 5.3 | MFI HisTag FITC (CD19 [7]): 2.39
B9: CD19 BRIDGE variant B23 (Fab)
heavy: B5 heavy
light: DFPGHNYTTRNILPGLNITSTFHKTSGSGKGSEPKSSDKTHTDIVMTQSPATLSLSPGERATLSCRSSKSLQNVNGNTYLYWFQQKPGQSPQLLIYRMSNLNSGVPDRFSGSGSGTEFTLTISSLEPEDFAVYYCMQHLEYPITFGAGTKLEIKRTVAAPSVFIFPPSDEQLKSGTASVVCLLNNFYPREAKVQWKVDNALQSGNSQESVTEQDSKDSTYSLSSTLTLSKADYEKHKVYACEVTHQGLSSPVTKSFNRGEC

MFIR BIL03 AF647 (CD19 [1]): 19.1 | MFIR HisTag FITC (CD19 [2]): 3.09 | HisTag MFI Ratio of EGFR+/EGFR- (nfP2X7 CAR 1 [3]): 4.2 | MFI HisTag FITC in EGFR+ Population (nfP2X7 CAR 1 [4]): 2.24 | MFI Bil03 AF647 (CD19 [5]): 8.78 | HisTag MFI Ratio (background 0.44) (nfP2X7 CAR 1 [6]): 5.1 | MFI HisTag FITC (CD19 [7]): 2.38
B10: CD19 BRIDGE variant B28 (Fab)
heavy: B5 heavy
light: DFPGHNYTTRNILPGLNITSTFHKTSGSGKEPKSSDKTHTGSDIVMTQSPATLSLSPGERATLSCRSSKSLQNVNGNTYLYWFQQKPGQSPQLLIYRMSNLNSGVPDRFSGSGSGTEFTLTISSLEPEDFAVYYCMQHLEYPITFGAGTKLEIKRTVAAPSVFIFPPSDEQLKSGTASVVCLLNNFYPREAKVQWKVDNALQSGNSQESVTEQDSKDSTYSLSSTLTLSKADYEKHKVYACEVTHQGLSSPVTKSFNRGEC
